In data set [1] the target is T1, LUX1-MBP (Glycine max, UniProt K7LTA3 1-306).
T1 sequence: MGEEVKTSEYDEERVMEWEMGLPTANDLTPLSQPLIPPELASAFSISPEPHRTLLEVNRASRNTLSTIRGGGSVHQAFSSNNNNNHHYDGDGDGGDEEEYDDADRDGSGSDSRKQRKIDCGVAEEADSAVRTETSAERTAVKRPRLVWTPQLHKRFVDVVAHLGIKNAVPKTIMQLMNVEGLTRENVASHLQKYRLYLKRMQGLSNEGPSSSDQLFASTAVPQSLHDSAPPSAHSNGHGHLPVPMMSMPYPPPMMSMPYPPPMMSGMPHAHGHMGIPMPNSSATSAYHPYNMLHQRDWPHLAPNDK
The experiment in a line: EMSA; LightShift Chemiluminescent EMSA Kit (Pierce) binding buffer, composition, salt and pH not stated; room temperature 20 min; 6% native PAGE. Conditions: protein: recombinant; tags: MBP; label: biotin; blunt. In general terms: In EMSA bound probe runs differently from free probe, usually more slowly.

The target of data set [2] is T2, INN1-MBP (ELF3a) (Glycine max, UniProt K7KI62 1-714).
T2 sequence: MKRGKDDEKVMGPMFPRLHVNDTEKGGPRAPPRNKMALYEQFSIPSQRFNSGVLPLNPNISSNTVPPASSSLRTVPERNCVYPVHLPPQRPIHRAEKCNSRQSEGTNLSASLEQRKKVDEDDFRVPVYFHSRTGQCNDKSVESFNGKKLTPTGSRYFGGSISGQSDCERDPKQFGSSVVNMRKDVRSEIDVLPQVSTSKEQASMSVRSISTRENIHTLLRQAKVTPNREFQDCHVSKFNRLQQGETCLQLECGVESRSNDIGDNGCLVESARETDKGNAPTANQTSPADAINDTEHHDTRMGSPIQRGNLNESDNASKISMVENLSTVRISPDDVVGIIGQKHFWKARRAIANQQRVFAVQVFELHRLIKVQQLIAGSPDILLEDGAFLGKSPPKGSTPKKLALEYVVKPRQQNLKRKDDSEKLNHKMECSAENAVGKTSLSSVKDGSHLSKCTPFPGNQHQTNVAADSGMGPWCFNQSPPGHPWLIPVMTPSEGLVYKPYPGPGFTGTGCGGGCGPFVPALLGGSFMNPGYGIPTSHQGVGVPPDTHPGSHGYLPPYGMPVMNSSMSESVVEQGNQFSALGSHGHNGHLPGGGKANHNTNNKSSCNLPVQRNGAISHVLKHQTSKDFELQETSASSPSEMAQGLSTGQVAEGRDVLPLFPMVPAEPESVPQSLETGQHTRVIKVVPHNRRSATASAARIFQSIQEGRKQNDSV
The experiment in a line: EMSA; INN1 alone; probe taken to be the ENOD40 probe of Table S1; LightShift Chemiluminescent EMSA Kit (Pierce) binding buffer, composition, salt and pH not stated; room temperature 20 min; 6% native PAGE. Conditions: protein: recombinant; tags: MBP; label: biotin; blunt.

These results are taken from PMC12120873, “Evening complex component ELF3 interacts with LUX proteins to repress soybean root nodulation”.

B1: probe-ENOD40 (P1 region) (dsDNA)
DNA 1: TTGACATTCATATCCTTTGTATTTCAATTAGATTAGATATGTTCTACGGA
DNA 2: TCCGTAGAACATATCTAATCTAATTGAAATACAAAGGATATGAATGTCAA
Consider B1, for which the binding result was “binds” in data set [1] and “no binding” in data set [2].
